From article PMC13544220, “Glycemic and bodyweight effects of GIPR coding variation reflect differences in surface expression and intrinsic functional impairment” (Science Advances, 2026)
Where a chain is given by its changes, count along the chain named. Names and notes keep the numbering of the source.

What was measured:
Assay type in all cases: cell-based, human
[1] = test system: wild-type and variant SNAP-GIPR; test: Surface SNAP-GIPR expression (SNAP-tag labelling) in AD293 cells; details: for AD293 Surface: Fig S3E, mean; for Surface SNAP-GIPR expression: sheet Fig 1C;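 for all read-outs here: scaled to the experimental average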
Outline: (§1)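 Read-out: whole-cell fluorescence of surface-only SNAP label (Alexa Fluor 647, 500 nM, 10 min, RT), wide-field 20X, several FOVs per well. Flat-field corrected, phase-contrast masked, nontransfected-well signal subtracted; normalized to experiment mean or wild-type.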

[2] = test system: wild-type and variant SNAP-GIPR; test: Surface SNAP-GIPR expression (SNAP-tag labelling) in INS-1 cells; details: Fig 4G; Mean
Outline: as §1

[3] = test system: wild-type and variant SNAP-GIPR; test: Single-concentration GIP cAMP response by HTRF in AD293 cells; details: Fig S3F, HTRF, mean;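 note: ratio to experiment-wide average response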
Protocol: (§2) All variants were tested in parallel on each occasion to control for transfection efficiency differences between experiments.

[4] = test system: wild-type and variant SNAP-GIPR; test: Single-concentration GIP cAMP response by HTRF in INS-1 cells; details: Fig S3E, mean
Protocol: as §2

[5] = test system: wild-type and variant SNAP-GIPR; test: cADDis cAMP imaging in AD293 cells, ensemble, expression-matched and per decile; details: Fig S3F, cADDis, mean;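 note: Ensemble cells as % of IBMX/FSK response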
Outline: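 AD293 cells reverse-transfected with wild-type or variant SNAP-GIPR plus cADDis Green Up sensor, variants run in parallel. After 24 h, surface receptor labelled with SNAP-Surface Alexa Fluor 647 (500 nM); single-cell cADDis fluorescence imaged at 37 °C in KRBH, 6 mM glucose, 0.1% BSA. Responses given ensemble, expression-matched by wild-type deciles, or per own decile.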

[6] = test system: wild-type and variant SNAP-GIPR; test: Constitutive and agonist-mediated internalization, reversible SNAP-tag labelling, AD293 cells; set-up: key to Internalisation, Vehicle / Internalisation, +GIP / Internalisation, GIP-only: % internalization: residual fluorescence after Mesna vs pre-Mesna; Surface expression: unit not given here; details: Mean; for +GIP internalisation (100 nM) / GIP-specific internalisation (100 nM) / Constitutive internalisation (100 nM) / Surface expression: Fig 4E; for +GIP internalisation (100 nM) / GIP-specific internalisation (100 nM): GIP 100 nM; for Internalisation, +GIP / Internalisation, GIP-only / Internalisation, Vehicle: Fig S4C, AD293
Outline: (§3)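 Percentage internalization is read as the fraction of specific SNAP fluorescence that survives Mesna stripping, compared with the image taken before Mesna. Wells are imaged in TNE buffer at pH 8.6 and again after 10 min.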

[7] = test system: wild-type and variant SNAP-GIPR; test: Constitutive and agonist-mediated internalization, reversible SNAP-tag labelling, INS-1 cells; set-up: key to Internalisation, GIP-only / Internalisation, Vehicle / Internalisation, +GIP: % internalization: residual fluorescence after Mesna vs pre-Mesna; details: Mean; for +GIP internalisation (100 nM) / GIP-specific internalisation (100 nM) / Constitutive internalisation (100 nM): Fig 4G; for +GIP internalisation (100 nM) / GIP-specific internalisation (100 nM): GIP 100 nM; for Internalisation, +GIP / Internalisation, GIP-only / Internalisation, Vehicle: Fig S4C, INS-1
Outline: as §3

[8] = column repeated, paired with cAMP 100 nM

B1: S415G (protein, UniProt P48546 22-466, looked up, variant S415G)
Gastric inhibitory …: RAETGSKGQTAGELYQRWERYRRECQETLAAAEPPSGLACNGSFDMYVCWDYAAPNATARASCPWYLPWHHHVAAGFVLRQCGSDGQWGLWRDHTQCENPEKNEAFLDQRLILERLQVMYTVGYSLSLATLLLALLILSLFRRLHCTRNYIHINLFTSFMLRAAAILSRDRLLPRPGPYLGDQALALWNQALAACRTAQIVTQYCVGANYTWLLVEGVYLHSLLVLVGGSEEGHFRYYLLLGWGAPALFVIPWVIVRYLYENTQCWERNEVKAIWWIIRTPILMTILINFLIFIRILGILLSKLRTRQMRCRDYRLRLARSTLTLVPLLGVHEVVFAPVTEEQARGALRFAKLGFEIFLSSFQGFLVSVLYCFINKEVQSEIRRGWHHCRLRRGLGEEQRQLPERAFRALPSGSGPGEVPTSRGLSSGTLPGPGNEASRELESYC
[1]; [8]
  AD293 Surface: 1.467
[1]; paired with cAMP 100 pM
  AD293 Surface: 1.467
[1]; replicate 1
  Surface SNAP-GIPR expression: 1.506
[1]; replicate 2
  Surface SNAP-GIPR expression: 0.2667
[1]; replicate 3
  Surface SNAP-GIPR expression: 1.585
[1]; replicate 4
  Surface SNAP-GIPR expression: 2.194
[1]; replicate 5
  Surface SNAP-GIPR expression: 1.195
[1]; replicate 6
  Surface SNAP-GIPR expression: 1.281
[1]; replicate 7
  Surface SNAP-GIPR expression: 1.352
[1]; replicate 8
  Surface SNAP-GIPR expression: 1.443
[1]; replicate 9
  Surface SNAP-GIPR expression: 1.419
[1]; replicate 10
  Surface SNAP-GIPR expression: 1.583
[1]; replicate 11
  Surface SNAP-GIPR expression: 1.553
[1]; replicate 12
  Surface SNAP-GIPR expression: 1.476
[1]; replicate 13
  Surface SNAP-GIPR expression: 2.028
[1]; replicate 14
  Surface SNAP-GIPR expression: 1.05
[1]; replicate 15
  Surface SNAP-GIPR expression: 1.445
[1]; replicate 16
  Surface SNAP-GIPR expression: 1.582
[1]; replicate 17
  Surface SNAP-GIPR expression: 1.552
[1]; replicate 18
  Surface SNAP-GIPR expression: 1.539
[1]; replicate 19
  Surface SNAP-GIPR expression: 1.754
[1]; replicate 20
  Surface SNAP-GIPR expression: 1.368
[1]; replicate 21
  Surface SNAP-GIPR expression: 1.348
[1]; replicate 22
  Surface SNAP-GIPR expression: 1.435
[1]; replicate 23
  Surface SNAP-GIPR expression: 1.476
[1]; replicate 24
  Surface SNAP-GIPR expression: 1.595
[1]; replicate 25
  Surface SNAP-GIPR expression: 1.677
[1]; replicate 26
  Surface SNAP-GIPR expression: 1.136
[1]; replicate 27
  Surface SNAP-GIPR expression: 1.395
[1]; replicate 28
  Surface SNAP-GIPR expression: 1.292
[1]; replicate 29
  Surface SNAP-GIPR expression: 1.605
[1]; replicate 30
  Surface SNAP-GIPR expression: 1.394
[1]; replicate 31
  Surface SNAP-GIPR expression: 1.688
[1]; replicate 32
  Surface SNAP-GIPR expression: 1.36
[1]; replicate 33
  Surface SNAP-GIPR expression: 1.647
[1]; replicate 34
  Surface SNAP-GIPR expression: 1.582
[1]; replicate 35
  Surface SNAP-GIPR expression: 1.005
[1]; replicate 36
  Surface SNAP-GIPR expression: 1.822
[1]; replicate 37
  Surface SNAP-GIPR expression: 1.489
[1]; replicate 38
  Surface SNAP-GIPR expression: 1.364
[1]; replicate 39
  Surface SNAP-GIPR expression: 0.9756
[1]; replicate 40
  Surface SNAP-GIPR expression: 1.792
[1]; replicate 41
  Surface SNAP-GIPR expression: 1.893
[2]
  Surface expression: 1.381
[3]
  AD293 100 pM HTRF: 1.117
  AD293 100 nM HTRF: 1.323
[4]
  INS-1 cAMP (100 nM): 1.389
[5]
  AD293 100 pM cADDis: 34.3916
  AD293 100 nM cADDis: 37.46
[6]
  +GIP internalisation (100 nM): 0.8449
  GIP-specific internalisation (100 nM): 0.2187
  Constitutive internalisation (100 nM): 0.6262
  Surface expression: 1.57
  Internalisation, +GIP: 54.2947
  Internalisation, GIP-only: 14.1911
  Internalisation, Vehicle: 40.1036
[7]
  +GIP internalisation (100 nM): 0.6865
  GIP-specific internalisation (100 nM): 0.178
  Constitutive internalisation (100 nM): 0.5085
  Internalisation, +GIP: 49.94
  Internalisation, GIP-only: 12.7417
  Internalisation, Vehicle: 37.1983

B2: S415I (protein, UniProt P48546 22-466, looked up, variant S415I)
Gastric inhibitory …: B1 Gastric inhibitory … with G394I
[1]; [8]
  AD293 Surface: 1.415
[1]; paired with cAMP 100 pM
  AD293 Surface: 1.415
[1]; replicate 1
  Surface SNAP-GIPR expression: 1.538
[1]; replicate 2
  Surface SNAP-GIPR expression: 1.541
[1]; replicate 3
  Surface SNAP-GIPR expression: 0.8191
[1]; replicate 4
  Surface SNAP-GIPR expression: 0.7376
[1]; replicate 5
  Surface SNAP-GIPR expression: 1.239
[1]; replicate 6
  Surface SNAP-GIPR expression: 0.9541
[1]; replicate 7
  Surface SNAP-GIPR expression: 1.285
[1]; replicate 8
  Surface SNAP-GIPR expression: 1.716
[1]; replicate 9
  Surface SNAP-GIPR expression: 1.542
[1]; replicate 10
  Surface SNAP-GIPR expression: 1.528
[1]; replicate 11
  Surface SNAP-GIPR expression: 1.71
[1]; replicate 12
  Surface SNAP-GIPR expression: 1.642
[1]; replicate 13
  Surface SNAP-GIPR expression: 1.407
[1]; replicate 14
  Surface SNAP-GIPR expression: 1.415
[1]; replicate 15
  Surface SNAP-GIPR expression: 1.606
[1]; replicate 16
  Surface SNAP-GIPR expression: 1.78
[1]; replicate 17
  Surface SNAP-GIPR expression: 1.435
[1]; replicate 18
  Surface SNAP-GIPR expression: 1.518
[1]; replicate 19
  Surface SNAP-GIPR expression: 1.637
[1]; replicate 20
  Surface SNAP-GIPR expression: 1.459
[1]; replicate 21
  Surface SNAP-GIPR expression: 1.421
[1]; replicate 22
  Surface SNAP-GIPR expression: 1.515
[1]; replicate 23
  Surface SNAP-GIPR expression: 1.665
[1]; replicate 24
  Surface SNAP-GIPR expression: 1.354
[1]; replicate 25
  Surface SNAP-GIPR expression: 1.699
[1]; replicate 26
  Surface SNAP-GIPR expression: 1.338
[1]; replicate 27
  Surface SNAP-GIPR expression: 1.389
[1]; replicate 28
  Surface SNAP-GIPR expression: 1.441
[1]; replicate 29
  Surface SNAP-GIPR expression: 1.484
[1]; replicate 30
  Surface SNAP-GIPR expression: 1.535
[1]; replicate 31
  Surface SNAP-GIPR expression: 1.596
[1]; replicate 32
  Surface SNAP-GIPR expression: 1.349
[1]; replicate 33
  Surface SNAP-GIPR expression: 1.554
[1]; replicate 34
  Surface SNAP-GIPR expression: 1.711
[1]; replicate 35
  Surface SNAP-GIPR expression: 1.113
[1]; replicate 36
  Surface SNAP-GIPR expression: 1.535
[1]; replicate 37
  Surface SNAP-GIPR expression: 1.264
[1]; replicate 38
  Surface SNAP-GIPR expression: 1.181
[1]; replicate 39
  Surface SNAP-GIPR expression: 0.9176
[1]; replicate 40
  Surface SNAP-GIPR expression: 1.301
[1]; replicate 41
  Surface SNAP-GIPR expression: 1.157
[2]
  Surface expression: 1.368
[3]
  AD293 100 pM HTRF: 1.488
  AD293 100 nM HTRF: 1.113
[4]
  INS-1 cAMP (100 nM): 1.251
[5]
  AD293 100 pM cADDis: 31.0791
  AD293 100 nM cADDis: 35.96
[6]
  +GIP internalisation (100 nM): 0.7539
  GIP-specific internalisation (100 nM): 0.1889
  Constitutive internalisation (100 nM): 0.565
  Surface expression: 1.257
  Internalisation, +GIP: 60.2605
  Internalisation, GIP-only: 14.9072
  Internalisation, Vehicle: 45.3533
[7]
  +GIP internalisation (100 nM): 0.7564
  GIP-specific internalisation (100 nM): 0.2171
  Constitutive internalisation (100 nM): 0.5393
  Internalisation, +GIP: 53.8917
  Internalisation, GIP-only: 15.145
  Internalisation, Vehicle: 38.7467
